Among the data in patent publication US20130336973A1 are Kd values, retold here.

Usually Kd stands for a measure of binding affinity in units of concentration. Low values mean tighter binding, high ones weaker binding.

Where “and” joins values, the source holds several entries; their conditions need not be identical. Identical values can stand only once.

Experiment [1] addresses FcγRIIB (CD32b), Y163 allotype (UniProt P31994). In words: SPR. On the technique in general: SPR reads the build-up and loss of mass on a sensor chip optically.
In experiment [2] the target is FcγRIIIA (CD16a), F158 allotype (UniProt P08637). In words: SPR.
Chain of FcγRIIIA (CD16a), F158 allotype (P08637 17-208 limits assumed): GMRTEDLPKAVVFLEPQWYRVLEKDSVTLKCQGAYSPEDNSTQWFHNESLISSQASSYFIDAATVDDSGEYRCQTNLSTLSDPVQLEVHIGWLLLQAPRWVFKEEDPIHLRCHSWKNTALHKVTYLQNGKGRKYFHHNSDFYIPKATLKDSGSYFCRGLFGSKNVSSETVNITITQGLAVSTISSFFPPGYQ
For experiment [3], the target named is neonatal Fc receptor (FcRn) (UniProt P55899). Briefly: SPR, Ab captured on goat anti-human IgG, FcRn flowed, pH 6.0.
Chain of neonatal Fc receptor (FcRn) (P55899 24-297 limits assumed, chain 1 of 2): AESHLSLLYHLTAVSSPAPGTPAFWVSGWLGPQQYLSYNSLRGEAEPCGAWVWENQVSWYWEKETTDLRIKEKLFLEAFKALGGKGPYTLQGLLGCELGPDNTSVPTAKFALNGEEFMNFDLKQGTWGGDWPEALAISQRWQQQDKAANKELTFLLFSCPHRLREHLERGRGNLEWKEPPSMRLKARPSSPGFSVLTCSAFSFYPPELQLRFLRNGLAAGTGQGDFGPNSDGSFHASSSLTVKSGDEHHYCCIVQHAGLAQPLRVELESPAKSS
Chain of neonatal Fc receptor (FcRn) (P61769 21-119 limits assumed, chain 2 of 2, further chain): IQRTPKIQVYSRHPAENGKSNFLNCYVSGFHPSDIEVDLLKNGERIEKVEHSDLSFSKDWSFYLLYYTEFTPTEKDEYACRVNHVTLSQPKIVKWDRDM

Chain of FcγRIIB (CD32b), Y163 allotype (P31994 43-217 limits assumed): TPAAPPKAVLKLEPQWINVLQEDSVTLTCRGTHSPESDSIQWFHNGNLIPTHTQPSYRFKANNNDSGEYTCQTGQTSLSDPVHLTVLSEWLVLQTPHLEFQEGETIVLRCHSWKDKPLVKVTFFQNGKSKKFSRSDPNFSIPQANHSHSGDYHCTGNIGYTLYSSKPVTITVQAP

For “D399C_F405A_Y407V / T366L_K392C_T394W (antibody)”, the equilibrium dissociation constant (Kd) amounted to 1.2 µM in experiment [1] and 0.51 µM in experiment [2]. For “F405A_Y407V / T366L_K392M_T394W (antibody)”, the dissociation constant Kd in experiment [2] stood at 0.46 µM.

Consider F405A_Y407V / T366L_T394W (antibody), for which, in experiment [2], the dissociation constant Kd is 0.48 µM. For Herceptin WT (antibody), the Kd in experiment [1] was found to be 1.7 µM; in experiment [3], 3.7 µM. Turning to “L351Y_F405A_Y407V / T366L_K392M_T394W (antibody)”, the Kd came to 0.42 µM in experiment [2] and 5 µM in experiment [3].

On to “Q347R_T350V_L351Y_S400E_F405A_Y407V / T350V_K360E_T366L_N390R_K392M_T394W (antibody)”, for which the Kd in experiment [1] turned out to be 0.92 µM; in experiment [2], 0.42 µM. With “T350V_F405A_Y407V / T350V_T366L_K392M_T394W (antibody)”, the equilibrium dissociation constant (Kd) in experiment [1] turned out to be 1 µM. In the case of “T350V_L351Y_F405A_Y407V / T350V_T366L_K392L_T394W (antibody)”, the values for the Kd in experiment [1] and in experiment [3] were 0.99 µM and 3.9 µM, respectively. Turning to “T350V_L351Y_F405A_Y407V / T350V_T366L_K392M_T394W (antibody)”, the Kd in experiment [1] is 1.2 µM; in experiment [2] it was 0.46 µM; in experiment [3], 4.3 µM. As for “T350V_L351Y_S400E_F405A_Y407V / T350V_L351Y_T366L_N390R_K392M_T394W (antibody)”, the Kd in experiment [1] was found to be 0.71 µM. In experiment [1], “T350V_L351Y_S400E_F405A_Y407V / T350V_T366L_N390R_K392F_T394W (antibody)” had a Kd of 0.71 µM.

With “T350V_L351Y_S400E_F405A_Y407V / T350V_T366L_N390R_K392L_T394W (antibody)”, the dissociation constant (Kd) in experiment [1] came out at 0.91 µM. As to “T350V_L351Y_S400E_F405A_Y407V / T350V_T366L_N390R_K392M_T394W (antibody)”, the equilibrium dissociation constant (Kd) was 0.9 µM in experiment [1]; 0.45 µM and 0.42 µM in experiment [2]; 5 µM in experiment [3]. For “T350V_L351Y_S400E_F405S_Y407V / T350V_T366L_N390R_K392M_T394W (antibody)”, the Kd was found to be 0.83 µM in experiment [1] and 0.42 µM in experiment [2]. In experiment [1], “T350V_L351Y_S400E_F405T_Y407V / T350V_T366L_N390R_K392M_T394W (antibody)” displayed a Kd of 0.67 µM. On the same count and under the same terms, with “T350V_L351Y_S400R_F405A_Y407V / T350V_T366L_K392M_T394W (antibody)” the figure was 0.89 µM; with “T350V_L351Y_S400R_F405A_Y407V / T350V_T366L_N390D_K392M_T394W (antibody)”, 0.94 µM.

Take “T350V_L351Y_S400R_F405A_Y407V / T350V_T366L_N390E_K392M_T394W (antibody)”: the figures for the Kd in experiment [1] and in experiment [2] were 0.89 µM and 0.42 µM, respectively. The corresponding values for “T350V_S400E_F405A_Y407V / T350V_T366L_N390R_K392M_T394W (antibody)” are 1 µM and 0.45 µM. Take “Y349C_D399C_F405A_Y407V / S354C_T366L_K392C_T394W (antibody)”: the Kd in experiment [2] turned out to be 0.63 µM. On to “Y349C_F405A_Y407V / S354C_T366L_T394W (antibody)”, for which the Kd was 1.2 µM in experiment [1] and 0.58 µM in experiment [2]. As to “Y349C_T350V_F405A_Y407V / T350V_S354C_T366L_K392M_T394W (antibody)”, the Kd in experiment [2] worked out at 0.46 µM; in experiment [3], 4.1 µM. As to “Y349C_T350V_L351Y_S400E_F405A_Y407V / T350V_S354C_T366L_N390R_K392M_T394W (antibody)”, the figures for the Kd in experiment [1] and in experiment [2] were 0.95 µM and 0.42 µM, respectively.
